Results from the domain aggregation screens of Martell et al. (2025).

Experiment: soluble fraction after stress (log2 fold change); higher = more stays soluble; pooled small domains, quantitative proteomics
Details: stress: 75 degC
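Further: 20 min heating vs room temperature control held 20 min.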

In order of rising “soluble fraction (log2)” value:
1. HMDREILWTNYVAARKQEFIASSIDTIGAEYLDNRRFWDTQFEREWTIIAERLASGFGLTDDILSIVGSDF  -4.12
2. HMDRSAQVLFLEHARSRLPQRIQWAEELAELLSIGIDSAYRRIRGETALTFNEAVSVSRKYDISLDYLFK  -3.79
3. HMDRWSLLTLTTLAGGTLRFTELKRAIGDISQRMLAQTLRTLEREGYVSRKVYATIPPKVEYRLTALGQSL  -3.21
4. HMDRSKREKEQQELMLKVQQIFDDNQQRFGAEKIRTVLAQNGVRVSVKRVSAIMQELNLRSIR  -2.36
5. HMDPTIRRGELIDAASRLFLSKGYAATSVRDILDEVGNRTASPSVFYYYFKSKEEIYQAVLRRHSE  -1.51
6. HMDRVMPVPEALIGMRFDIAVSRMLGVSRSQAAAYIDRGQVSIAGRGSQRSAQKSEKLVQGDSIEVAIA  -1.39
7. HMDPVATLTPREREVLELMAEGRTNAGIAEAMVVTEGAVEKHIQRIFAKLGLHADGGVHRRVAAVLALLG  -1.38
8. HMDPTVSGQTGSVVREIRPGVPGEVELSVPLYGIRRWQAMADGILAEGTRVTVIQAEGVRLSVRPV  -1.24
9. HMDPTVTFIVQVNGRVRDKITLSSDISENEAKNVALESPKITPHISGKSLSRVIFVPGKLINLVV  -1.06
10. HMDRDMGSMTDFENVRDAYLTGKVWNVGDLIEANGITGIIIRKGTNYVSYNDGDGKVHKAWLHDITL  -0.802
11. HMDQNVSVPKLAGLQVEEANAILKSKGLHIEIIDSIYQKDAVPGAIIEQVPEENSKVKKGRAIYVSVYAK  -0.65
12. HMDRETEEYELIRAKLEWLYQKQTGTIRNQTAKILHHLEIAKEEGNYYLYLKIKEEAKQWLVQASMYLD  -0.638
13. HMDPRTSSLTPQERKVLELVGGGLTNRQIAAEMFLAEKTVKNYVSSLLAKLGFERRTQAAVFIASPAF  -0.54
14. HMDPTEPLFVGVVTAEPYLNIREYPTTQSKDLGDLFPGMHVNVYEIVPNWYRIDDGWVASAWVKRDWGGG  -0.478
15. HMDQFMLQSAWLRAVQHVMKHTDDVGTQFAEEARRMHYGEADERPIRGQATSDEARALHDEGIEVMALPI  -0.36
16. HMDRGDVTREALIKAAIEIFGRDGFHAASTRAIAERAGANQALIGYHFRGKLGLYHATFEYIIGKI  -0.351
17. HMDQVYYDLKSLIELLPADQMEVLKMRYFEELSFKKIAQKIDVSINTALGRMRYALINLRALSKKHHID  -0.272
18. HMDRMMQPETWGRVYQWITDDPQVPDREEVLTLIKYHYGDFGKLMKLLHRLNEGKAWTYLSEHIFPRM  -0.254
19. HMDSESGAIIRRAVAQLAPKFRSTIVLRLIEGYSTEETAQILQLPVGTVLSRLARAKVQLMNLLTPYKEL  -0.0893
20. HMDSIDIDAETKSLGPNAPQIIKGIKEWGQGLVAKGVWSDQDFEEFKVFAATANGINALNKVRKFY  -0.037
21. HMDRMINYSPIVAKVPQDDYTTKVYNIPIYSELTVVDKISEPEPLIAPIYRFKYITPEDEEIEFDIPV  -0.00941
22. HMDRRSTTLQDIYTRIDAEEISEALELIPKLGEIEFEQNRAEIAEAAGVRPAVLDKLRKQAAKQENNKK  -0.00584
23. HMDRNIVYSDFIRSVNQGQVSEVLVQGDNIRGRYLNGKVFQTFAPKDPSLISTLRNKGVRISAEPA  0.00952
24. HMDRNEFVSTLRAALTGAVSPAIVEDNVRYYQNYISQEIASGKSEKEVLDGLGDPRLIARTIIDT  0.0747
25. HMDQDIILHKVQPGDTLSKILLHYHSHQDRNKLQGLIAESMTANPFIKNPDLIYPGQLIQVPVPA  0.0879
26. HMDSIDVQQKKLLTDIELGNIEGIKLFLKRHNNTINFLTIKGFHPLVYAVRNNNMEIVNLFLTT  0.149
27. HMDSAFVSDIRDAFDEAGVDSYRFFGTHSFKRGGVQLYRLLGVSDQEIKERGHWQTFSAYFAYVQA  0.164
28. HMDQILIHLKEGIDVTDVQPMLKALDLNVRMFNRDKNIIVISVLNRELDAIPQTIAALRPWEELFDSA  0.171
29. HMDPSKLVEVQEPVSMKALSEGLGIKVTELIATFAFKLKIGGKNINSMLSNDEVELVALDLERNIKVV  0.258
30. HMDRYAVRAEELAAALAQYHRHVGVYPENLEDLIAPTGPRGYRGPYLSELPTNPSTSKPDWGYDPATGRVS  0.432
